In patent US20250011391A1, “ULTRA LIGHT-SENSITIVE NEUROPSIN-BASED OPTOGENETIC TOOL FOR ACTIVATING G q-COUPLED SIGNALING AND/OR ACTIVATING CELLS” (GENANS BIOTECHNOLOGY CO., LTD, priority 2021, published 2025):

Assays:
[1] = system: Gq signaling in HEK 293T cells; experiment: Light-induced Ca2+ signal (Calbryte 630 AM dye) in opsin-expressing HEK 293T cells; type: cell-based; conditions: for Light Sensitivity / Response amplitude: Ca2+ response amplitude: Table 8
Procedure: (§1) Whether heterologous expression of the Opn5 orthologs from chicken, turtles, humans and mice (which share 80-90% protein sequence identity) have the capacity to mediate blue light-induced Gq signaling activation within HEK 293T cells is tested (FIG. 1a and table 7). Blue light for stimulation and the red intracellular calcium indicator Calbryte™ 630 AM dye are used to monitor the relative Ca^2+ response (FIG. 1b).
b, Pseudocolor images of the Ca2+ signal before and after blue light stimulation (10 s; 100 μW/mm^2; 488 nm) in HEK 293T cells expressing Opn5 from three species (Gallus gallus, Homo sapiens, and Mus musculus). Scale bar, 10 μm.
Characterizing the light-activating properties of cOpn5 heterologously expressed in HEK 293T cells is performed. […] The effects of different light durations on cOpn5-expressing HEK 293T cells are tested. […] Therefore, the light sensitivity of cOpn5 is 3-4 orders of magnitude higher than the reported values of the light-sensitive Gq-coupled GPCRs and even 2-3 orders higher than those of the commonly used optogenetic tool Channelrhodopsin-2 (ChR2)(Lin, 2011; Zhang et al., 2006) (table 8).
The performance of cOpn5 to that of opto-a1AR, a chimera GPCR engineered by mixing rhodopsin with Gq-coupled adrenergic receptor is compared. […] The performance of cOpn5 to that of opn4, a natural opsin which was reported as a tool for Gq signaling activating is also compared. […] Therefore, compared with existing opsin-based tools (opto-a1AR and opn4), cOpn5 is much more light-sensitive (˜3 orders more sensitive), requires much shorter time exposure (10 ms vs. 60 s), and produces stronger responses. […]
Experiments description: the following table 9 is a partial list of cOpn5 orthologs from vertebrata tested in the present invention. Whole genes of all reported opsin5 orthologs from vertebrata (the vertebrates subphylum, including rotundia, cartilaginous fishes, bony fishes, Amphibia, reptila, ornitha and mammals) are synthetized, and expressed in HEK 293T cells. Calcium imaging with or without 470 nm blue light stimulation is performed to test the sensitivity of the opsin 5 orthologs in response to light. The time course of light-induced calcium signal reveal the activated degree of Gq signaling pathway and the sensitivity of these orthologs.

Gi signaling = experiment: cAMP levels in Opn5-expressing HEK 293T cells after photostimulation; type: cell-based; conditions: without additional retinal; 10 μM forskolin preincubation
Procedure: as §1
f, Light has no effect on cAMP levels (10 μM forskolin preincubation) in cOpn5-expressing HEK 293T cells without additional retinal in the medium (left panel).

[2] = system: LH GABAergic neurons of VGAT-Cre mice; experiment: Optogenetics and food intake assay; type: in vivo, mouse; conditions: 20 Hz; 5 ms/pulse; 473 nm; 0.75 mW; vs EGFP-expressing control mice
Procedure: (§2) Finally, the utility of cOpn5-mediated optogenetics for modulating animal behavior is assessed. The lateral hypothalamus (LH) is a brain center with known functions in reward processing and feeding behaviors^54,55. cOpn5 is expressed in the LH GABAergic neurons of VGAT-Cre mice and implanted optical fibers to deliver light pulses into the LH of freely behaving mice (FIG. 8g). […] Electrophysiological recordings on LH and ZI cOpn5-expressing neurons are performed to characterize the response profiles. The injection sites and placement of optical fibers are confirmed by whole brain slices (FIG. 10a-c). […] Thus, cOpn5 is effective for rapidly, accurately, and reversibly modulating animal behavioral states.
g, Schematic diagram of the experimental setup for optogenetics and food intake assay. cOpn5-EGFP was expressed in GABAergic neurons within the lateral hypothalamus (LH) of VGAT-Cre mice. EGFP was expressed as a control.
h, Summary of light-induced (20 Hz; 5 ms/pulse; 473 nm; 0.75 mW output from the fiber tip), cOpn5-mediated activation of eating behaviors. ***P=0.0003; n.s., non-significant; n=6 mice; unpaired t test. Error bars indicate S.E.M.

[3] = system: GABA neurons in the zona incerta (ZI) of VGAT-Cre mice; experiment: Food-foraging behavior task; type: in vivo, mouse; conditions: vs EGFP-expressing mice
Procedure: as §2
i, Schematic diagram of the experimental setup for food foraging behavior. High-fat food pellets were used. cOpn5-EGFP was expressed in GABAergic neurons within the zonal incerta (ZI) of VGAT-Cre mice. EGFP was expressed as a control.
j, Summary of cOpn5-mediated food foraging behaviors. Foraging time percentage was calculated upon receiving light stimulation until the mouse found the hidden food. ****P<0.0001; n=6 mice; unpaired t test. Error bars indicate S.E.M.

[4] = 10 ms 16 μW/mm2 470 nm, mean±S.E.M., n=10 cells

B1: cOpn5: Chicken (Gallus gallus) Opn5 (neuropsin) ortholog, SEQ ID NO:1, GenBank NM_001130743.1 (protein, listed as Gallus lafayetii)
chain: MSGMASDCNSSSQEEYLPHYVQQEDPFASKLSREADIIAGFYLTVIGILSTLGNGYVIFMSSKRKKKLRPAEIMTVNLAVCDLGISVVGKPFSIISFFSHRWIFGWMGCRWYGWAGFFFGCGSLITMTAVSLDRYLKICHLAYGTWLKRHHAFICLALIWAYATFWATVPFAGVGSYAPEPFGTSCTLDWWLAQASVAGQAFVLSILFFCLLFPTAVIVFSYVKIILKVKSSTKEVAHYDTRIQNSHILEMKLTKVAMLICAGFLIAWIPYAVVSVWSAFGQPDSVPIQFSVVPTLLAKSAAMYNPIIYQVIDCKFACCRSGGPKTLQKKSSLKESRMYTLSSHRDSAALSGTQLEV
[1]
  light sensitivity higher than reported values of Channelrhodopsin-2 (ChR2): 2-3 orders of magnitude
  light sensitivity higher than reported values of light-sensitive Gq-coupled GPCRs: 3-4 orders of magnitude
  more light-sensitive than opto-a1AR and opn4: ~3 orders
[1]; [4]
  10% peak activation time of Ca2+ signal: 1.36 ± 0.55 s
  90% peak activation time of Ca2+ signal: 2.37 ± 0.87 s
  decay time τ of Ca2+ signal: 18.66 ± 4.98 s
[1]; 10 ms, 16 μW/mm2, 470 nm
  Ca2+ signals without extracellular Ca2+: resistant to the removal of extracellular Ca^2+
[1]; 16 μW/mm2, 470 nm
  light duration at which Ca2+ response achieves saturation: over 10 ms
[1]; 100 μW/mm2
  Ca2+ response to longer-wavelength visible light (561 nm or above): completely ineffective
[1]; 100 μW/mm2, versus 470 nm
  Ca2+ response to UVA light (365 and 395 nm): less effective
[1]; 470 nm, 10 ms
  light intensity producing about half maximum response: ~4.8 μW/mm^2
  light intensity producing full maximum response / full activation: 16 μW/mm^2
[1]; 470 nm, 16 μW/mm2
  light duration required for full activation: 10 ms
[1]; HEK 293T cells, 10 ms stimulation, response ~3.0 ΔF/F
  Light Sensitivity: 16 μW/mm^2
[1]; HEK 293T cells, 470 nm, 0.026 μW/mm2, >2 s
  Response amplitude: Ca2+ response amplitude: ~1 (ΔE/F)
[1]; HEK 293T cells, >2 s stimulation, response ~1
  Light Sensitivity: 0.026 μW/mm^2
[1]; HEK 293T, light as in the row's sensitivity and duration columns
  Response amplitude: Ca2+ response amplitude: ~3.0 (ΔF/F)
[1]; blue light 10 s, 100 μW/mm2, 488 nm, no exogenous retinal
  light-induced increase in Ca2+ signal: ~3 ΔF/F
[1]; cOpn5-expressing cells, 10 ms blue light pulses at 16 μW/mm2
  peak amplitudes of Ca2+ signals: 3-8 ΔF/F
[1]; in response to 10 ms light pulses
  more rapid than opto-a1AR or opn4 (temporal resolution): ~3 orders of magnitude
[1]; light 10 s vs CNO puff 100 nM 10 s
  response kinetics versus hM3Dq-expressing cells: faster and temporally more precise response
[1]; wavelengths 365-630 nm at fixed 100 μW/mm2
  wavelength eliciting the strongest Ca2+ transients: 470 nm
Gi signaling
  effect of light on cAMP levels: has no such effect
[2]
  food intake on light stimulation: significant increase in food intake
[3]
  time of foraging high fat food pellets on repeated light stimulation: significantly increase in the time of foraging
